Like-named read-outs stand apart in the source and are kept apart here.
T1: HVEM-His protein (Homo sapiens, UniProt Q92956)
T1 construct: purchased ACROBiosystems
T1 sequence (Q92956 39-283): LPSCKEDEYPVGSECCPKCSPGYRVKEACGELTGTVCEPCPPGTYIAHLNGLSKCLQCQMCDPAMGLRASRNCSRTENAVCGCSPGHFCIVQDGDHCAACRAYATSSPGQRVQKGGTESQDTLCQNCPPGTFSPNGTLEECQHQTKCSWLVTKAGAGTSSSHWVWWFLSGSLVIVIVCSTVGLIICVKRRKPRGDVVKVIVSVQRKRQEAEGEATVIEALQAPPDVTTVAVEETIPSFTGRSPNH

B1: HVEM-His protein (receptor, UniProt Q92956 39-202, looked up)
chain: LPSCKEDEYPVGSECCPKCSPGYRVKEACGELTGTVCEPCPPGTYIAHLNGLSKCLQCQMCDPAMGLRASRNCSRTENAVCGCSPGHFCIVQDGDHCAACRAYATSSPGQRVQKGGTESQDTLCQNCPPGTFSPNGTLEECQHQTKCSWLVTKAGAGTSSSHWV
modifications: labelled with RED-tris-NTA 2nd Generation dye on the His tag (spectral shift only)
notes: Herpes virus entry mediator (HVEM); No catalogue number printed; also called herpes virus entry mediator; source: bought: ACROBiosystems
B2: LIGHT: LIGHT protein, TNFSF ligand of HVEM (protein)
chain: MEESVVRPSVFVVDGQTDIPFTRLGRSHRRQSCSVARVGLGLLLLLMGAGLAVQGWFLLQLHWRLGEMVTRLPDGPAGSWEQLIQERRSHEVNPAAHLTGANSSLTGSGGPLLWETQLGLAFLRGLSYHDGALVVTKAGYYYIYSKVQLGGVGCPLGLASTITHGLYKRTPRYPEELELLVSQQSPCGRATSSSRVWWDSSFLGGVVHLEAGEKVVVRVLDERLVRLRDGTRSYFGAFMV

Columns and labels:
LIGHT protein = LIGHT protein (UniProt O43557 1-240); test: spectral shift (SpS); Monolith X; HVEM-His labelled with His-Tag Labeling Kit RED-tris-NTA 2nd Generation, final 50 nM; peptides 2 µM to 6.1 pM; PBS-T (0.05% Tween-20, 0.3 M NaCl, pH 7.4); fluorescence ratio 670/650 nm; 25 °C; apparent Kd (peptides aggregated at higher concentrations); details: both partners purified
HVEM-His protein [1] = molecular target: T1, HVEM-His protein; test: Spectral shift (SpS) affinity of peptides to HVEM; type: binding; details: spectral shift (Monolith X, 670/650 nm), 50 nM RED-tris-NTA labelled HVEM-His, ligand 2 µM to 6.1 pM, PBS-T pH 7.4 with 0.3 M NaCl, 25 °C; mean of triplicate; apparent, approximate value only
Procedure: Based on the computer analyses conducted for the designed peptides in complex with the HVEM, five compounds – peptides light1, light2, light3, light4, and light3_E178L were selected for experimental validation and their affinity to HVEM was evaluated using SpS.Fluorescence intensity was measured at 670 and 650 nm (Figure S4). […] Due to the fact that peptides at higher concentrations aggregated, it was not possible to fully determine the Kd. Therefore, only the apparent Kd values were determined and were used for HVEM binding strength comparison. Note that apparent Kd is only approximate value and should be used only for qualitative comparison.
SpS experiments were conducted using the Monolith X instrument (Nanotemper, Munich, Germany). Protein labelling was performed using the His-Tag Labeling Kit RED-tris-NTA 2nd Generation (Nanotemper, Munich, Germany). To prepare the fluorescent dye solution at concentration 0.1 µM, 2 µL of a 5 µM dye stock was diluted in 98 µL of deionized water. […] The mixtures were loaded into Monolith X-compatible capillary tubes, and fluorescence ratios (670/650 nm) were measured at 40% excitation power and average IR laser power at a temperature of 25 °C. Data were analyzed using MO.Control 2 software (version 2.5.4, NanoTemper, Munich, Germany). […]

HVEM-His protein [2] = molecular target: T1, HVEM-His protein; details: SpS technique; previously determined by the authors; read-out: Kd of LIGHT binding to HVEM; cited from earlier work
HVEM = molecular target: HVEM; design: method as in 2 sources, ref 11 = [11]; PMID 25087510; doi:10.1016/j.str.2014.06.013; 11. Liu W Mechanistic basis for functional promiscuity in the TNF and TNF receptor superfamilies: structure of the LIGHT:DcR3 assembly Structure 2014 22 1252 10.1016/j.str.2014.06.013 25087510 PMC4163 ||| ref 41 = [41]; PMID 20175993; doi:10.1016/j.bbrc.2010.02.119; 41. Morishige T Creation of a lysine-deficient LIGHT mutant with the capacity for site-specific pegylation and low affinity for a decoy receptor Biochem. Biophys. Res. Commun. 2010 393 888 893 10.1016; details: other research group, read-out: Kd of HVEM/LIGHT complex, cited from earlier work

Molecule | Kd (LIGHT protein) [nM] | Kd (HVEM-His protein [1]) [nM] | Kd (HVEM-His protein [2]) [nM] | Kd (HVEM; ref 11) [nM] | Kd (HVEM; ref 41) [nM]
B1 | 920 |  |  |  | 
B2 |  | 920 | 920 | 18.7 | 1.5

From PMC12623744 (Scientific Reports, 2025)
